In patent US20250032632A1 (published 2025):
Changes are numbered by the printed parent chain. Names may count otherwise.

Tests used:
[1] = biological target: human cMET-Fc fusion protein (extracellular domain of human cMET fused to human Fc) (human) (UniProt P08581); test: SPR with hMet-Fc
[2] = biological target: mouse cMET (ELISA antigen) (mouse, UniProt P16056 25-931, limits assumed); test: ELISA, cross-reactivity, mouse cMET
[3] = biological target: T1, human cMET-Fc fusion protein (extracellular domain of human cMET fused to human Fc) (human, UniProt P08581 25-932); test: SPR with hMet-Fc
T1 construct: Mature cMET is cleaved into alpha and beta subunits; also called hMET-Fc; hMet-Fc
T1 sequence (P08581 25-932): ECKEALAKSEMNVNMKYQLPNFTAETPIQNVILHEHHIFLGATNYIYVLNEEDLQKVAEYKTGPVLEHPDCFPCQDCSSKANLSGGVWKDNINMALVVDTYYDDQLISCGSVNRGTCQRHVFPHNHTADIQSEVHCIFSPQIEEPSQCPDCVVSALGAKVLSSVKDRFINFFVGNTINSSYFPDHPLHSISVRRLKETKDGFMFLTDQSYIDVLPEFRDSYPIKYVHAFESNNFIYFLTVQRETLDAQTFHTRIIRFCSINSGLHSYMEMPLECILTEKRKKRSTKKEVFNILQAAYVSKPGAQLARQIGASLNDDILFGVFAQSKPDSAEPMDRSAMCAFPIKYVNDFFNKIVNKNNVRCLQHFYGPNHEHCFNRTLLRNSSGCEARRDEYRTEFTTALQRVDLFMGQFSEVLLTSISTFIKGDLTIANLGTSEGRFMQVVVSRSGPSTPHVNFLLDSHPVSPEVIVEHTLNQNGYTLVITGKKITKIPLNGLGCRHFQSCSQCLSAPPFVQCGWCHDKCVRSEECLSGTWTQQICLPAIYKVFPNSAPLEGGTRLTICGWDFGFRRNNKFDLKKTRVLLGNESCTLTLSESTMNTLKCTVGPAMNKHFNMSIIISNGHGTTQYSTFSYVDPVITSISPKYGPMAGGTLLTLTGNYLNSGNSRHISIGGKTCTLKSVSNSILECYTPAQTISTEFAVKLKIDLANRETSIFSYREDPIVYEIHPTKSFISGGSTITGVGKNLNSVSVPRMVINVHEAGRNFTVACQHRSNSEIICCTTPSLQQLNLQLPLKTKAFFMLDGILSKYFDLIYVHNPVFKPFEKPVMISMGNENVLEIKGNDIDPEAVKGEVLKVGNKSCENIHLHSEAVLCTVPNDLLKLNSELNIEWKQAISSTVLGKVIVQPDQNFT

rat cMET (ELISA antigen) [4] = biological target: T2, rat cMET (ELISA antigen) (rat, UniProt P97523 25-935, limits assumed); test: ELISA, cross-reactivity, rat cMET
T2 construct: also called rMET
T2 sequence (P97523 25-935 limits assumed): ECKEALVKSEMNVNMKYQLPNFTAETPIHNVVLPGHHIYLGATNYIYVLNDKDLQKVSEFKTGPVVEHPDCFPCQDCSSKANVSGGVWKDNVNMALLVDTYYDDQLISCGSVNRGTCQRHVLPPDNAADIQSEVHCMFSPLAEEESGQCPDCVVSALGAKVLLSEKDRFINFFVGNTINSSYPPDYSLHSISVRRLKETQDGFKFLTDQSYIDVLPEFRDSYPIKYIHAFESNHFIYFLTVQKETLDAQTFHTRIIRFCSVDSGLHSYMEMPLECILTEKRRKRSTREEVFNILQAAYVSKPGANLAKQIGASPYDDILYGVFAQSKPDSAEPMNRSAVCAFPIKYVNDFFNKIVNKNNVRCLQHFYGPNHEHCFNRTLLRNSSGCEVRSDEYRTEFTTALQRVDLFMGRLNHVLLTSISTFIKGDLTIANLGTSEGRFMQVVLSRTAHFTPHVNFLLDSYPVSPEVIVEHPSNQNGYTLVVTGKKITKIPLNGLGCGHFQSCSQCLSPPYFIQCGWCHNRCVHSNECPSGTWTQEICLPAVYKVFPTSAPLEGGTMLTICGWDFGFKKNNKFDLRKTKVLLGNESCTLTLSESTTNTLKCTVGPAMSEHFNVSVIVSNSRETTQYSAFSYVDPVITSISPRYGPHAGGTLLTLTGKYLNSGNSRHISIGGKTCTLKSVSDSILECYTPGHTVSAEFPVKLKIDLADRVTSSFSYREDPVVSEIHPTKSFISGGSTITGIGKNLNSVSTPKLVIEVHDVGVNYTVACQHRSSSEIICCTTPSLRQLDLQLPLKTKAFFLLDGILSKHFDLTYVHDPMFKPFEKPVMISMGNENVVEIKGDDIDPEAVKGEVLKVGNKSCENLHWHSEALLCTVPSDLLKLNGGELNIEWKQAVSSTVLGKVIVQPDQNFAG

[5] = biological target: T3, human cMET (ELISA antigen) (human, UniProt P08581 25-932, limits assumed); test: ELISA on human cMET, relative to parental P3D12
T3 construct: also called hMET
T3 sequence (P08581 25-932 limits assumed): as the sequence (P08581 25-932) above

rat cMET-Fc = biological target: T4, rat cMET-Fc (rat, UniProt P97523 25-935); test: SPR, rMET-Fc
T4 construct: Construct named only as rMET-Fc; also called rMET-Fc; not shown: Fc part
T4 sequence (P97523 25-935 limits assumed): as the sequence (P97523 25-935 limits assumed) above

rat cMET (ELISA antigen) [6] = biological target: T2, rat cMET (ELISA antigen); test: ELISA on rat cMET, relative to parental P3D12
[7] = biological target: T5, mutant cMET (E168D) Fc recombinant fusion protein (human, UniProt P08581 25-932); test: binding ELISA, plate-coated E168D cMET-Fc, goat anti-human IgG (H+L)-HRP (FIG. 16)
T5 construct: also called E168D cMET; E168D cMET extracellular domain fused to human IgG1 Fc; not shown: Fc of human IgG1
T5 sequence (P08581 25-932 E168D): as the sequence (P08581 25-932) above, with E144D counted along it
Protocol: The E168D mutation is a somatic mutation found in small cell lung cancer (SCLC). The mutation is located in the Sema domain and leads to constitutive activation of the cMET receptor. Abundance of somatic mutations of cMET are very low. E168D occurs in 0.8% to 3% of SCLC patients. A binding ELISA was performed with human cMET or E168D cMET extracellular domains fused to human IgG1 Fc. cMET proteins were coated on a plate overnight and the samples titrated and detected with a goat anti-human IgG (H+L)-HRP. EC₅₀s were determined using sigmoidal dose response fit.

[8] = biological target: T1, human cMET-Fc fusion protein …; test: SPR, hMET-Fc
[9] = biological target: T6, Recombinant Human c-Met-10X His (human, UniProt P08581 25-932); test: cMET binding ELISA, plate-bound human cMET (FIGS. 24A, 24B)
T6 construct: In-house reagent (Lot #140924TA); not shown: 10X His tag
T6 sequence (P08581 25-932 limits assumed): as the sequence (P08581 25-932) above
Protocol: The antibody drug conjugates were tested at increasing concentrations (x-axis, concentration of antibody-drug conjugate (μg/ml)) for their ability to bind plate-bound human cMET. Relative binding strength is indicated by luminescence (y-axis).
PMID: 5257969. The payload of chemical formula II was site-specifically conjugated to each of the mutated cysteine residues using Maleimide chemistry. The quality and extent of conjugation was assessed by a determination of total recovery, aggregate content, monomer content and drug-antibody ratio (DAR).

mouse cMET (ELISA antigen), sequence (P16056 25-931 limits assumed): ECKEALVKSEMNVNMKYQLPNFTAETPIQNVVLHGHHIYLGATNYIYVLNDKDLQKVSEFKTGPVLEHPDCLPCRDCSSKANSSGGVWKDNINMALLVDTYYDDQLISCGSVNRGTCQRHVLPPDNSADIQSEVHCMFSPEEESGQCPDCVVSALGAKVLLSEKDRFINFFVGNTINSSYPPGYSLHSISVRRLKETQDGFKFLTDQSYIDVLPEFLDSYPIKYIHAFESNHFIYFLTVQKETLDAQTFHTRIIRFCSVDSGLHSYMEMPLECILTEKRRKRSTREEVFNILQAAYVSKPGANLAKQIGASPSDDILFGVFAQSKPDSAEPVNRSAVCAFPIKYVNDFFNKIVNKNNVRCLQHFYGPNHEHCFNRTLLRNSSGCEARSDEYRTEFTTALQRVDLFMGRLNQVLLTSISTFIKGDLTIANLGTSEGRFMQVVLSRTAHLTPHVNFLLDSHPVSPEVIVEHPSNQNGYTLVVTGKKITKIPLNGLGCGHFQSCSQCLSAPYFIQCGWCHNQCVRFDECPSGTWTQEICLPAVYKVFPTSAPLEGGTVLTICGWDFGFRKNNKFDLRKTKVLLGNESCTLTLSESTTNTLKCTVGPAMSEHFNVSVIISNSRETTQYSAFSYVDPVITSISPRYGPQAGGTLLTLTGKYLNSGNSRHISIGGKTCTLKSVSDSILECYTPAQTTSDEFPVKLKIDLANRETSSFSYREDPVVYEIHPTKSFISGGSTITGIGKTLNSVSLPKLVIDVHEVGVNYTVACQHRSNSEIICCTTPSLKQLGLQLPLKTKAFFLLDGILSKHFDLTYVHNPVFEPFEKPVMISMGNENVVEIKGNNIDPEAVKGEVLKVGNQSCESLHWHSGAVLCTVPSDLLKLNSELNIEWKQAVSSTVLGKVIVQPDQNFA
human cMET-Fc fusion protein (extracellular domain of human cMET fused to human Fc) (human), sequence (P08581 25-932): as the sequence (P08581 25-932) above

5D5 (antibody) was tested. Which Kd [1] did it give?
Its Kd is 0.8 nM.

B1: F6AP8E2 (antibody, V domains shown)
VH: EVQLQQSGAELVRPGALVKLSCKASGFNINDYFMHWVKQRPEQGLEWIGWIDPENGNTIYDPKFQGKASITADTSSNTAYLQLSSLTSEDTAVYYCARGGNYLRESYYYAMDYWGQGTSVTVSS
VL: DIVMTQSPKSMSMSVGERVTLSCKASENVGTYVSWYQQKPDQSPKLLIYGASNRYTGVPDRFTGSGSATDFTLTISSVQAEDLADYHCGQSYSYPLTFGAGTKLELKR
notes: Mouse monoclonal antibody
Does B1 bind [2]?
Result: no binding

What about the Kd [3] of the same molecule?
The Kd was 0.16 nM.

Does B1 bind (rat cMET (ELISA antigen) [4])?
Result: no binding

B2: hD12 (humanized anti-cMET antibody of IgG2 isotype, VH-cdr SEQ ID NO: 108 + VL-fra SEQ ID NO: 47) (antibody)
heavy: QVQLVQSGAEVKKPGASVKVSCKASGYTFTSYWMHWVKQAPGQGLDWIGYIKPSTDNTEYNQKFKDKATLTADKSTSTAYMELSSLRSEDTAVYYCARSYGNYPLMDYWGQGTTVTVSSASTKGPSVFPLAPCSRSTSESTAALGCLVKDYFPEPVTVSWNSGALTSGVHTFPAVLQSSGLYSLSSVVTVPSSNFGTQTYTCNVDHKPSNTKVDKTVERKCCVECPPCPAPPVAGPSVFLFPPKPKDTLMISRTPEVTCVVVDVSHEDPEVQFNWYVDGVEVHNAKTKPREEQFNSTFRVVSVLTVVHQDWLNGKEYKCKVSNKGLPAPIEKTISKTKGQPREPQVYTLPPSREEMTKNQVSLTCLVKGFYPSDIAVEWESNGQPENNYKTTPPMLDSDGSFFLYSKLTVDKSRWQQGNVFSCSVMHEALHNHYTQKSLSLSPGK
light: QIVLTQSPAILSLSPGERATLSCSASSSVTSNYLYWYQQKPGSSPKLLIYSTSNLASGVPARFSGSGSGTSYTLTISSLEAEDAASYFCHQWSSYPPTFGSGTKLEIKRTVAAPSVFIFPPSDEQLKSGTASVVCLLNNFYPREAKVQWKVDNALQSGNSQESVTEQDSKDSTYSLSSTLTLSKADYEKHKVYACEVTHQGLSSPVTKSFNRGEC
notes: also called G2ckf
B2 was tested. Which “ELISA hMET vs parental” value [5] did it give?
The value was 0.7 fold vs parental.

And the Kd (rat cMET-Fc)?
The Kd was 7 nM.

What about the “ELISA rMET vs parental” value (rat cMET (ELISA antigen) [6]) of the same molecule?
The value was 0.9 fold vs parental.

Does B2 bind [7]?
Result: binds

And the Kd [8]?
The Kd was 0.3 nM.

B3: hD12-T289C-II (hD12 T289C variant site-specifically conjugated to the payload of chemical formula II) (antibody, human IgG2, kappa)
heavy: B2 heavy with T287C
light: B2 light
modifications: payload of chemical formula II on Cys 289 (EU numbering), maleimide chemistry
notes: Antibody-drug conjugate, IgG2
Does B3 bind [9]?
Result: binds
